Assays:
[1] = biological target: T1, ScPex1^WT (Pex1-FLAG), S. cerevisiae (S. cerevisiae, UniProt P24004 1-1043); experiment: SEC
T1 sequence: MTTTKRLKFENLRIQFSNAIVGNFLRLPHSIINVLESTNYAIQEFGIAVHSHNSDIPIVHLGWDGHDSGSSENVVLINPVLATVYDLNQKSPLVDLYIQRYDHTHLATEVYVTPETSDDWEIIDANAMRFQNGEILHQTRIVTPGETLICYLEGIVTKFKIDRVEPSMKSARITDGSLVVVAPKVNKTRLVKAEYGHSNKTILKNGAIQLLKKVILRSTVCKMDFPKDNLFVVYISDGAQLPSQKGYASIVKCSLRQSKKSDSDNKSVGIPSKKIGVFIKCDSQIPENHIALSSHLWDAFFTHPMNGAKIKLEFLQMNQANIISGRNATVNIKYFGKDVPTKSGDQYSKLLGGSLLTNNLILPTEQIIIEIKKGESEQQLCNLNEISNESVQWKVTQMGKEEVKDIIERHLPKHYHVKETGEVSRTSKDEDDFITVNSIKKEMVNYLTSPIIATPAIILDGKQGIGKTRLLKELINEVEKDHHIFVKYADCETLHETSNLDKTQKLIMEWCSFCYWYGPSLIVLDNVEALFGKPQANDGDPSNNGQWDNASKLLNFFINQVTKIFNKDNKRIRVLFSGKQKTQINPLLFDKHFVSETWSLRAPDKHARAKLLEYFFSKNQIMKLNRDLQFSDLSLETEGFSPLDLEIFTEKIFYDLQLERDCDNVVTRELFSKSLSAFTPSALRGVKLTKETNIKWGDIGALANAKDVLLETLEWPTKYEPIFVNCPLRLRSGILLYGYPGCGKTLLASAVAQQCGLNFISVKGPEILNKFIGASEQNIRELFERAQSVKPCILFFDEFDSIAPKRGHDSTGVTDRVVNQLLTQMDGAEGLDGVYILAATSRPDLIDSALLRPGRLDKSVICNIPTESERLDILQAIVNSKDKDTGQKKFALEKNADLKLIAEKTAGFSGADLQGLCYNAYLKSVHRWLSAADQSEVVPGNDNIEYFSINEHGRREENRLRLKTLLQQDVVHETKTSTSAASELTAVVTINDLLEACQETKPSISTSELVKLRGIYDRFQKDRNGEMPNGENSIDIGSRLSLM

[2] = biological target: T2, ScPex1^G700D (Pex1-FLAG G700D), S. cerevisiae (S. cerevisiae, UniProt P24004 1-1043, G700D); experiment: SEC
T2 sequence: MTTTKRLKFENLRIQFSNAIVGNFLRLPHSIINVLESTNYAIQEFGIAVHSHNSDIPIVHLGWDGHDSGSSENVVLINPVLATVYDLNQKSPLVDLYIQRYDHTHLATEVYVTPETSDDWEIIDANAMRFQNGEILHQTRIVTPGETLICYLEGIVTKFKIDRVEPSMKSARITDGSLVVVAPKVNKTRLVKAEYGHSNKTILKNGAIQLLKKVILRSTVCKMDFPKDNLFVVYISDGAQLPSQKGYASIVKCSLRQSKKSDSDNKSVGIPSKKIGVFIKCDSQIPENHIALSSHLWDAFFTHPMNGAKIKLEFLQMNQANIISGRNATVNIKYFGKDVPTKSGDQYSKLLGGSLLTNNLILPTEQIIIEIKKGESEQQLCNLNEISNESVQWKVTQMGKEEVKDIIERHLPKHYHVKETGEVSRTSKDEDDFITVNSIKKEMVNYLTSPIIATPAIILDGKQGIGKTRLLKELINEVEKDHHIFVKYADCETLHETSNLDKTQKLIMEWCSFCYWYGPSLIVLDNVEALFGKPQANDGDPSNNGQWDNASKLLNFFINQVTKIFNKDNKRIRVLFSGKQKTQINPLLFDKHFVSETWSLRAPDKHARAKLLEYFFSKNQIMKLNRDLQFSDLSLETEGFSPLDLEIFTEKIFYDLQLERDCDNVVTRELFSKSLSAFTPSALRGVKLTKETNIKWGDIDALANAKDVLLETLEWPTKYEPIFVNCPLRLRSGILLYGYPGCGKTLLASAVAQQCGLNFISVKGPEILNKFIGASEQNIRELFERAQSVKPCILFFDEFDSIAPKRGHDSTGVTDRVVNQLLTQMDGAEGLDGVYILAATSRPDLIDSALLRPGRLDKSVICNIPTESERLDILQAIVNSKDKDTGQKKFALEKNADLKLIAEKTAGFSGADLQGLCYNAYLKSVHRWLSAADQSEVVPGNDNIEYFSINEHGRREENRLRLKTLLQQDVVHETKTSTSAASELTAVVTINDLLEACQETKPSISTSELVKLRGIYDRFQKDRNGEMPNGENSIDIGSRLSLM

binding result [1]: binds
binding result [2]: binds
B1: ScPex6 (His-Pex6), S. cerevisiae (natural protein)
chain: MKASLTFSLSGIYAPCSISRDIYLEYGDKKAECLYGTIRLPQYGPGCTPGKIVHCVLDDSLPFCSIVVPSKLFGFMPTQPTMDFCYFEPILDNVVPVLDSVTFLINEQLYSKLMDLPQEMQQIQFLHYKYNINSMETVVHSRDILTSGLCQILNCSPFPQGLVDFTETQLILVNDTEQKLSALKYANEDEEYALPKIGTNSALSIDLESLPCTISRDLLRPAPHINDDNSIYAFTDAETLLRLDVTSGSFITVSNMGCVRLVKLFVLLLPNGFKKRTIYAPPKIIASFPDCSVVTISKSNIGHTDIPIANQVFISRVGGWLQSQKCFQNIILTTLKKFFSESKRILCQNDLIPIAFDSSMADLNIAEENDESDDEDELGQYYKNDSLVWFFVTSAELDCFSKDNSHFIIDPNRTKLITTNITNRRPLPLSRSNLQRYYGFAETFYYDLHIFPYVRQLVNILETSFNCSQRGITLNASVLLHSTTNNVGKATMVRFASKYLGIHLLEIDCLSLTSNSRQLDSTSKIIGYIRAKCENVLPYASPAVIFLAHLDSILLDVNANQDPEAIKLQKSINFEMSKLLDDFTFKFPGTTFVGSVNNIDNVPSSFRSHMRFEILVPVPSEAQRLRIFQWYLSSHELNRDVQQKVPVSYMDNISFSSLSSYSAGLTPLDIKSIVETARMTATARFYQESKKCGWLPQSILITQEDLSKATSKARNEFSVSIGAPQIPNVTWDDIGGIDFVKGEILDTIDMPLKHPELFTSGMKKRSGILFYGPPGTGKTLMAKAIATNFSLNFFSVKGPELLNMYIGESEANVRRVFQKAREAKPCVIFFDEIDSVAPKRGNQGDSGGVMDRIVSQLLAELDGMSTDADGVFVIGATNRPDLLDEALLRPGRFDKLLYLGIPDTDTKQLNILEALTRKFVLDNDVKLIELAKLCPFNYTGADFYALCSDAMLNAMSRIARMVEKKVSQHNELTGENISTRRWFDKIATKEDTKVVVKMEDFLKAQEQLTPSVSRAELNHYEAVRANFEGA

Source: PMC11661142 (bioRxiv, 2024)
